Experimental data published in the supplement of paper PMC9170038.

System: MS2 coat protein
Assay: apparent KD of MS2 coat protein; designed switch direction (-1 OFF switch, 1 ON switch): -1; higher = weaker reporter binding
Outline: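 The reported apparent KD is a per-design median over clusters, from curve fits of normalised cluster fluorescence. Protein titrations used SNAP-549-labelled MS2 coat protein, doubled from 0.7 or 1.5 nM to 3 µM, in Tris-HCl pH 7.5 buffer with KCl, MgCl2, BSA, DTT, tRNA and Tween-20, with no input, 200 uM small-molecule ligand, or an oligonucleotide input. The RNA switches were transcribed on Illumina chips by stalled E. coli RNA polymerase.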

[1] = Eterna round: R95, input ligand: microRNA oligo, concentration not stated
[2] = Eterna round: R95, input ligand: FMN 200 uM
[3] = Eterna round: R95, input ligand: none
[4] = input ligand: microRNA oligo, concentration not stated

Row | Sequence | apparent KD of MS2 coat protein [1] | apparent KD of MS2 coat protein (input ligand: FMN 200 uM) | apparent KD of MS2 coat protein (input ligand: none) | apparent KD of MS2 coat protein [2] | apparent KD of MS2 coat protein [3] | apparent KD of MS2 coat protein [4]
1 | CCUCGACAUGAGGAUCACCCAUGUCAGGAUAUUGUGUUUUUGGUUUUUUACCUUUAGGCAAGAAGGGAUGUGUG [LRO-Excl1-18] (puzzle: Exclusion 1) | 14.4 nM | – | – | – | – | –
2 | AGCGAGGUAGGAUAUACAUGAGGAUCACCCAUGUGCUUGCAUGGCGUGGAAUGUCGAGGUAGAAGGGCCAUGCC [EX3 #72] (Eterna round: R97, puzzle: Exclusion 3) | – | 33.2 nM | 27.2 nM | – | – | –
3 | AUACGUCAAGUCAGGAUAUAUACCGCGACUACGGCGUAGAAGGGACAUGAGGAUCACCCAUGUAAAAGGGCAAA [Ceerrilaza] (puzzle: Brourd's mod of Exclusion 4) | 36.5 nM | – | – | 37.7 nM | 34.5 nM | –
4 | AACCCUAGGGUCAGACGCACAAGCUUUUUGCUCGUUUUAACAUGAGGAUCACCCAUGUCUAGUGGAUCUGAUCGGGC [Isreen] (puzzle: Sensor v3, turn-off variant 2) | 137 nM | – | – | 24.7 nM | 26.2 nM | –
5 | AUUAUUUCAGGAUAUGCCUUCAAAGACAUGAGGAUCACCCAUGUUUUCAGUGGCAGGAUCGCAGAAGGGAGAUAUU [EX5 C.29] (Eterna round: R97, puzzle: Exclusion 5) | – | 15.6 nM | 14.4 nM | – | – | –
6 | AUACAACAUGAGGAUCACCCAUGUGAGGAUAUGCGAUACAUCAUCAUCAUCAUCAAUCGCAGAAGGCACAACAU [Different] (puzzle: Exclusion 1) | 52.3 nM | – | – | – | – | –
7 | GAAAAUGUGGAGGAUAUCGACUUCGAAAGAAGUCGAGAAGGCCACACAUGAGGAUCACCCAUGUGAUGCCUAUA [Omei Ex6 H8] (Eterna round: R97, puzzle: Exclusion 6) | – | 774 nM | 230 nM | – | – | –
8 | CGUGCGUAUGUGAGGAUAUGCUGGUCCUUGGAUCGGCAGAAGGCACAUGAGGAUCACCCAUGUGGUGUCGUUCC [salish99_Bmod_ex4_094] (Eterna round: R96, puzzle: Brourd's mod of Exclusion 4) | – | 328 nM | 39.1 nM | – | – | 30.8 nM
9 | AAGAAACAUGAGGAUCACCCAUGUGAGGAUAUGGCCCGCCCGGCGUGAGCUAAAUAAAUCAGAAGGCACAAAGG [salish99_ex1_r4_010] (Eterna round: R97, puzzle: Exclusion 1) | – | 24.6 nM | 42.2 nM | – | – | –
10 | AAUAACGAGCCGGUCCUCCACAUGAGGAUCACCCAUGUGUUCGUCUUGUAAAGUACUAUCACGAAAGUGAUAGUACA [mod jandersonlee2] (Eterna round: R97, puzzle: Sensor, turn-off variant 1) | – | 746 nM | 858 nM | – | – | –
11 | CUUAAGUUAGGAUAUGCGCUACGGAAUCGUGGUUAUAGACAGCAGAAGGAACUUGAGGAUCACCCAAGUAAAUA [Inatsoce] (Eterna round: R97, puzzle: Exclusion 4) | – | 89.2 nM | 108 nM | – | – | –
12 | UAUGGGUCUACAGGAUAUUCCAGUAGAUAGAAGGGAGAAGGGUGGGCCUAUACUUGAGGAUCACCCAAGUGAAAAGGGUCAUCC [Mutated MS2 EX1.13] (Eterna round: R96, puzzle: Exclusion NG 1) | – | 27.9 nM | 36.6 nM | – | – | 24.8 nM
13 | UCCUCACAUGAGGAUCACCCAUGUCAGGAUAUGCGCGGCCAAAAGGGCUGCUAAGGCAGCAGAAGGGACGUGAA [Rarequtece] (puzzle: Exclusion 1) | 14.1 nM | – | – | 18.7 nM | 15 nM | –
14 | UAAUUAAAUGUAGGAUAUCUGCACGUGUAGUGCAGAGAAGGACAUGAGGAUCACCCAUGUAGAUCAAAUUAAAUUAAUUUAAUU [ENG1/5-D3] (Eterna round: R96, puzzle: Exclusion NG 1) | – | 54 nM | 23.7 nM | – | – | 21.5 nM
15 | AUAGUGUGAGGAUAUCGGACCAGUCCAGUUAGGAGCAGGAUCGAGAAGGUACAUGAGGAUCACCCAUGUGACCA [Eternabot (L2) Solution 8] (Eterna round: R97, puzzle: Exclusion 4) | – | 30.8 nM | 16.8 nM | – | – | –
16 | AAUUAGUAUGUGAGGAUAUUGACGUAAUGACUGGUUAAGAAGGCACAUGAGGAUCACCCAUGUGGGAAGUCACG [JR_BMEx4_Sub011] (Eterna round: R97, puzzle: Brourd's mod of Exclusion 4) | – | 56.8 nM | 15.2 nM | – | – | –
17 | AGAGUGCUGCGAGGAUAUACAUGAGGAUCACCCAUGUGGAUCUGUGAGGGAAAACCUCACAGGAUGUAGAAGGCGCAGUACUCA [Mat - Exclusion NG 2 - Mod of JL - D50] (Eterna round: R96, puzzle: Exclusion NG 2) | – | 134 nM | 37.2 nM | – | – | 15.8 nM
18 | AUUUAGCAAGUUAGAUCCUACAUGAGGAUCACCCAUGUUGUUCGUCUCAUUUGAAGACAACACAAAAGUGUUGUCUU [Omei Mir OFFv1 B4] (Eterna round: R97, puzzle: Sensor, turn-off variant 1) | – | 112 nM | 126 nM | – | – | –

Row | Sequence | apparent KD of MS2 coat protein [1] | apparent KD of MS2 coat protein (input ligand: FMN 200 uM) | apparent KD of MS2 coat protein (input ligand: none) | apparent KD of MS2 coat protein [2] | apparent KD of MS2 coat protein [3] | apparent KD of MS2 coat protein [4]
19 | GAUCCACAUGAGGAUCACCCAUGUGAGGAUAUGAUACUAUGUACUUCGGUACAUAGUAUCAGAAGGCACAGGUC [Ex1-3: 56] (Eterna round: R96, puzzle: Exclusion 1) | – | 333 nM | 52.9 nM | – | – | 50.7 nM
20 | AUUGUAUGGGAAGGAUAUAGAAUAUUAUUUUAACAUGAGGAUCACCCAUGUAACCUUAUGUGUAGCUAGAAGGUCCGUUUGUUA [Title] (Eterna round: R96, puzzle: Exclusion NG 2) | – | – | – | – | – | 269 nM
21 | ACCUUACUGGUCAGGAUAUACAGUCUUUGGUGUGUGUAGAAGGGACAUGAGGAUCACCCAUGUAGGUUGCAGUA [alecazam60] (Eterna round: R97, puzzle: Brourd's mod of Exclusion 4) | – | 77.6 nM | 67.7 nM | – | – | –
22 | UUAACAUGCUGGUGAUCAUACAUGAGGAUCACCCAUGUAACAAGCUUUUUGCUCGUCUUAAUUUAAUUGAUUACUAG [Stov1/8-A1] (Eterna round: R97, puzzle: Sensor, turn-off variant 1) | – | 120 nM | 134 nM | – | – | –
23 | GCUGAUGCAGGAUAUAUAUGAAGCGUUCGAAUAGAAUGCGAACAUGAGGAUCACCCAUGUAGAAGGGCAUUGGC [Omei Ex 2, 1A] (puzzle: Exclusion 2) | 13.9 nM | – | – | – | – | –
24 | AUUAUGUUAGGAUAUGCUUAUGGUGGAUAGUCCAAUGUGGUGCAGAAGGGACAUGAGGAUCACCCAUGUGCUGA [EX4 #30] (Eterna round: R97, puzzle: Exclusion 4) | – | 92.3 nM | 57.5 nM | – | – | –
25 | CAUGUUUGUCGUUGAUCCAACAUGAGGAUCACCCAUGUCUCUUUAGCUUUUUGCUCGUCUUAUCCUCCUUUGUUCAC [JR_STOV1_v2_Sub0101] (Eterna round: R97, puzzle: Sensor, turn-off variant 1) | – | 65.5 nM | 401 nM | – | – | –
26 | UGCAGACGAGGAUAUAGAUUUGAUAACAUGAGGAUCACCCAUGUGAUCGAUAGAUCAGAUUUAGAAGGCGUCUGCA [E5/8-A2] (Eterna round: R97, puzzle: Exclusion 5) | – | 628 nM | 529 nM | – | – | –
27 | UUCUAACGAGGAUAUCGAUGGUGGAACAUGAGGAUCACCCAUGUAUGAGAUAUUGUAGUUCGAGAAGGCGUUCAGU [JR_E5_Sub057] (Eterna round: R96, puzzle: Exclusion 5) | – | 35.9 nM | 48.6 nM | – | – | 32.3 nM
28 | AAUUAUUAUUGAGGAUAUCGUAUUGAAAUAAUAUGAGAAGGCGGGAUAAACAUGAGGAUCACCCAUGUGAGCCUGAUGCUUGUG [Ex NG1 #39] (Eterna round: R96, puzzle: Exclusion NG 1) | – | – | – | – | – | 13.3 nM
29 | GAUUAUGCGAGCUUUAGGGACAUGAGGAUCACCCAUGUUCGUCUUAUUGGUCUGGAUGCACUAACAUACCUAAAUCU [JMF 28] (puzzle: Sensor v3, turn-off variant 1) | 30.4 nM | – | – | 22.4 nM | 24 nM | –
30 | UUGAACCCGGUAGGAUAUAUUGUGGGCAAACAUGGAACAACAUGAGGAUCACCCAUGUAAUUUAGGUAGAAGGGCCAAAAGAUU [Excl-NG2-LRO06] (Eterna round: R96, puzzle: Exclusion NG 2) | – | 72.1 nM | 69.9 nM | – | – | 61 nM
31 | AAUAACAGAGGAUAUACUAUUUUAUGUGUUUGUUGUUUUAAACAUGAGGAUCACCCAUGUAGAAGGCUGAUUGA [JMF 74] (puzzle: Exclusion 2) | 31.1 nM | – | – | – | – | –
32 | UUUAAGUCAGGAUAUCGUUAAUUUAAUAAAUUAAUUUAAUUCGAGAAGGGACAUGAGGAUCACCCAUGUAAUUU [Ex4 #2] (Eterna round: R97, puzzle: Exclusion 4) | – | 33.5 nM | 28 nM | – | – | –
33 | AUCCGUUGUAUAGGAUAUAAGUGUAAACUGUACUUAGAAGGAUACAUGAGGAUCACCCAUGUUGUAAUAGAUGAGCAUAGAGCA [Eternabot solution 6] (Eterna round: R96, puzzle: Exclusion NG 1) | – | 52.2 nM | 30.2 nM | – | – | 24.1 nM
34 | AAAUCCCGAGGAUAUACAUGAGGAUCACCCAUGUAAUCAAACAGGGCAAAUUGAUCCGGUAGAAGGCGGACAAU [EX3 A.26] (Eterna round: R97, puzzle: Exclusion 3) | – | 26.6 nM | 13.5 nM | – | – | –
35 | AAACCUGGAGUUAGGAUAUGAAGUAUCACUGCGCUUCAGAAGGGACUUGAGGAUCACCCAAGUAAAAGUUAAAA [Teredi] (Eterna round: R97, puzzle: Brourd's mod of Exclusion 4) | – | 20.8 nM | 18.5 nM | – | – | –
